# Data published in publication PMC12204516, “Structural basis for higher-order DNA binding by a bacterial transcriptional regulator” (PLOS Genetics, 2025).
# Several values for one entry are separate records, joined by “and”; a condition that tells them apart may be missing. Equal values may be shown once.
# T1: Xre^Pp antitoxin with a N-terminal His6-tag (Xre_(NHis6)), of the Xre_(NHis6)-RES^Pp complex (Pseudomonas putida KT2440, UniProt Q88K58 11-159)
# T1 construct: also called Xre_(His6); source: E. coli BL21(DE3), pETDuet::xre_(NHis6)-res^Pp, purified with RES (HisTrap FF, Source 15Q, Superdex 200 Increase); not shown: His6, N-terminal, kept
# T1 sequence: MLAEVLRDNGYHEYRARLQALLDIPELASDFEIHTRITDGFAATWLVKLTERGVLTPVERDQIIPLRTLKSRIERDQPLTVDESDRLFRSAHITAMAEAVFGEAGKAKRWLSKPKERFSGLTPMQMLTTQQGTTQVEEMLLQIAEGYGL
# B1: Xre^Pp antitoxin, untagged, co-expressed and co-purified with RES^Pp_(NHis6) (Xre-RES^Pp_(NHis6) complex) (natural protein, Pseudomonas putida KT2440, UniProt Q88K58 11-159, looked up)
# chain: T1 sequence
# notes: Xre antitoxin (N-terminal HTH domain, C-terminal DUF2384) encoded by xre^Pp of the xre-res locus, Pseudomonas putida KT2440; residues 1-149 built in PDB 9R35 (complete in chain B and others); also called Xre antitoxin
# B2: RES^Pp toxin, untagged, co-expressed and co-purified with Xre_(NHis6) (Xre_(NHis6)-RES^Pp complex) (natural protein, Pseudomonas putida KT2440)
# chain: MILWRISAYADLSGTGGLRVSGRWHQAGRPVVYAATSPPGAMLEVLVHLEIDPEDFPTTMRLLRIELPDTVSQAQLPALQPGWSAQPELTRTLGNRFLDDCSALLLPVPSAIMPSTTNYLFNPRHPQAQSAKIQVEDFTPDSRLF
# notes: also called RES toxin
# B3: RES^Pp toxin with N-terminal His6-tag (RES^Pp_(NHis6)), of the Xre-RES^Pp_(NHis6) complex (natural protein, Pseudomonas putida KT2440, UniProt Q88K57 1-145, looked up)
# chain: B2 chain
# notes: RES-domain NADase toxin encoded by res^Pp of the xre-res locus, Pseudomonas putida KT2440; residues 1-145 built in PDB 9R35; the 13 N-terminal residues from the tag are not seen in the model; also called RES_(His6); RES^Pp_(His6); not shown: His6, N-terminal, kept
# How the values were obtained:
# [1] = target: B3; experiment: mass photometry; conditions: both partners purified
# [2] = target: B3; experiment: SEC-MALS; Superose 6 Increase 10/300, 20-40 ug per sample, 20 mM HEPES pH 7.5, 150 mM KCl, 5 mM MgCl2, 3 mM BME; conditions: both partners purified
# [3] = target: T1, Xre^Pp antitoxin with a N-terminal …; experiment: SEC; conditions: both partners purified
# mass photometry = target: the molecule itself; experiment: mass photometry
# [4] = target: the molecule itself; experiment: SEC-MALS; Superose 6 Increase 10/300, 20-40 ug per sample, 20 mM HEPES pH 7.5, 150 mM KCl, 5 mM MgCl2, 3 mM BME
binder,measurement,setting,value
B1,stoichiometry N,[1],~2 Xre per RES and ~1.5 Xre per RES and ~1 Xre per RES
same,stoichiometry N,[2],2 Xre per RES
B2,stoichiometry N,[3],1 RES per Xre
same,binding result,mass photometry,binds
B3,binding result,[4],binds
